Paper PMC5018216 (Nature structural & molecular biology, 2016)
Where “and” joins values, the source holds several entries; their conditions need not be identical. Equal entries are not always repeated. Blank lines part the entries; values can stand above or below the binder they belong to.

Legend:
[1] = biological target: the molecule itself; assay: native MS
[2] = biological target: tBamA, the 16-stranded transmembrane domain of the BamA OMP insertase (UniProt P0A940 425-810); assay: native MS
[3] = biological target: T1, tOmpA, the 8-stranded transmembrane domain of OmpA (UniProt P0A910 22-197); assay: native MS
T1 sequence: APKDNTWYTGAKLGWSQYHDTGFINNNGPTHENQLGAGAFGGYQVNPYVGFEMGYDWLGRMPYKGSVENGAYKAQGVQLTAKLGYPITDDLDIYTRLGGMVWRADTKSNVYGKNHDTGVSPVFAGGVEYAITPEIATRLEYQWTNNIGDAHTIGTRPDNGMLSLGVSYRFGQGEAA

[4] = biological target: T2, OmpT (E. coli, UniProt P09169 21-317); assay: native MS
T2 sequence (looked up): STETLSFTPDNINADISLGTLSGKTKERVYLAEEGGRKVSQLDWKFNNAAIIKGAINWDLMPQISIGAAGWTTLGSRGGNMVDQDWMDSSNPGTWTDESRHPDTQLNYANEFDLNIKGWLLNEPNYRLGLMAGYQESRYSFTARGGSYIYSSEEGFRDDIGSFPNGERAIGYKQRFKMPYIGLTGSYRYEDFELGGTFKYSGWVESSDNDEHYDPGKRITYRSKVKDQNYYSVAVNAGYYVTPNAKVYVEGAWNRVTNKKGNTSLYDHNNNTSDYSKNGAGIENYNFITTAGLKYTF

[5] = biological target: T3, OmpF (UniProt P02931 23-362); assay: native MS
T3 sequence (looked up): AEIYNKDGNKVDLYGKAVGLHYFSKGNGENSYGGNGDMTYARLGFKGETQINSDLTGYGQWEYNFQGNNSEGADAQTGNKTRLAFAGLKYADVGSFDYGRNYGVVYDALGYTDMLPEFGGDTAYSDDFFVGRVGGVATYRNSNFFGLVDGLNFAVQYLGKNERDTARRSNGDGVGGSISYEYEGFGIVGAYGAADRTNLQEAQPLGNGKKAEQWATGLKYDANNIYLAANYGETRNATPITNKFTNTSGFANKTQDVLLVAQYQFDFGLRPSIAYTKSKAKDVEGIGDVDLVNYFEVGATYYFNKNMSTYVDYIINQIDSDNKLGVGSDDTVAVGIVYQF

[6] = biological target: T4, PagP (UniProt P37001 26-186); assay: native MS
T4 sequence (looked up): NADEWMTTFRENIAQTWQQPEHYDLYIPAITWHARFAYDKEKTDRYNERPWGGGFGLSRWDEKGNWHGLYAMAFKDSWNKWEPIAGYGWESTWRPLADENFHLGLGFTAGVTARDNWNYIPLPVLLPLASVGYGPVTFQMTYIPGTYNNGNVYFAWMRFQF

[7] = biological target: full-length BamA (UniProt P0A940 21-810); assay: cross-linking
[8] = biological target: T5, full-length OmpA (UniProt P0A910 22-346); assay: cross-linking
T5 sequence (looked up): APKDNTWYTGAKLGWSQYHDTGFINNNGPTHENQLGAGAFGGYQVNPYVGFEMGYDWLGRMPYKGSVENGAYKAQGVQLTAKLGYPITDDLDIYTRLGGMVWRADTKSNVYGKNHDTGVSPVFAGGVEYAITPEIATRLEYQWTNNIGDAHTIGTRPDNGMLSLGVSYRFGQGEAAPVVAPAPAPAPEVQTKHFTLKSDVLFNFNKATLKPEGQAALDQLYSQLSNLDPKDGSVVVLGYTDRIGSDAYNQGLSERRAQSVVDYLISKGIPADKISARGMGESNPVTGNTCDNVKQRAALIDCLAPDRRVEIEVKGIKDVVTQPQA

stoichiometry N [2]: 1 Skp (trimer) per OMP and ≤ 2 Skp (trimer) per OMP
stoichiometry N [3]: 1 Skp (trimer) per OMP
stoichiometry N [4]: ≤ 2 Skp (trimer) per OMP and 1 Skp (trimer) per OMP
stoichiometry N [5]: 1 Skp (trimer) per OMP and ≤ 2 Skp (trimer) per OMP
stoichiometry N [6]: 1 Skp (trimer) per OMP
B1: Skp (natural protein, Escherichia coli, UniProt P0AEU7 21-161, looked up)
chain: ADKIAIVNMGSLFQQVAQKTGVSNTLENEFKGRASELQRMETDLQAKMKKLQSMKAGSDRTKLEKDVMAQRQTFAQKAQAFEQDRARRSNEERGKLVTRIQTAVKSVANSQDIDLVVDANAVAYNSSDVKDITADVLKQVK
binding result [1]: binds

stoichiometry N [7]: 2 Skp (trimer) per OMP
stoichiometry N [8]: 1 Skp (trimer) per OMP
B2: His-tagged Skp (natural protein, Escherichia coli)
chain: B1 chain
